Laboratory results: patent publication US9828589B2, “Acyltransferases and uses thereof in fatty acid production” (priority 2009, dated 2017)
“Also recorded” adds a separate entry of the source.

B1: LPLAT_18374 (Pi): acyltransferase from Phythophtora infestance, 558 amino acids, SEQ-ID 8, encoded by SEQ-ID 7 (protein)
chain: MSTTALLQASTSPPPSREPEYAALEQLEPPLSHAIDMGVKVSPSESAAIAGGVYVTASSSCGASTIKHNPFTYTTPVDTYEKAKMTILCLLGVPFIRFVLLLCVGILLVIVSHLALIGYKPLDAHSGARPPLPRWRRIVGSPVPYLLRSLMLIVGYYWVPVKYPPNFNRHAMPRVIVSNHLTFFDGLYIFTLLSPSIAMKTDVANLPLISRIVQMIQPILIDRGTPEGRRRAMNDITSHVADPSKPPLLVFPEGTTSNQTVLCKFKVGSFVSGVPCQPVVLRYPYKHFDLSWPPGVSGLYLALRVLCQVYNRLEVEILPAYYPSERERKDPQLYAINVREVMAKALGVPTTNHAFEDVAMLMRVGDYATKHVVPLTDVGEVISLTALKRGDVDRLVGYFRRHDLDKDGHLSMQELRALFPNDDPVIVDQLFDLVDLDDSGLIDFRELCLALRALNPQNINEGDDALAKFAFRLYDLDNNGVIDASELEQLLRFQRNFYGVSEASVAAALRQAQAENTTGITYNRFEQLVLQNPEVLWYVRDKLEVLRGSMRESSLEIP
modifications: Phythophtora infestance
B2: LPAAT_13842 (Pi): acyltransferase from Phythophtora infestance, 424 amino acids, SEQ-ID 12, encoded by SEQ-ID 11 (protein)
chain: MSFATPAQVLQDVRFEERFAEIESRLPATLALAKEGSLAKRNQTKRKLYHDSELIRIELEERLNELGIESQWVTAPEMKEANEKLDAVRKQLKLDVLPASSSPLEKIYMVVRMLTMVLVLVGWLSCVTVLIPLKWLNPVLKKMGVKKNYLPMDIVSWGTAFMVCVTACTDMKAEGVENLLNLKDSVVCMFSHSSNLDGFIVNGSSPIAFKFAAKKSIFLVPFLGWSSRWGFDFVAIDRSHRKSALKSLKELAVSVNEHGNSVCISPEGTRSKDGLLQEFKKGPFYLREDTKKNVVPSIVFGAYELWPPGRLFSIPGHTLVRYLPEYKSDPNLNRNQNRLALRRIYLKAFTEDVPDYIGTRVSTNFILKNMFYHYLAWAITFKVTSWALTVISLVLYWLNITYGTFMLFSLVMMVAGEALMFFTC
modifications: Phythophtora infestance

What was measured:
[1] = test system: [14C]-18:1-Lysophosphatidlycholine (-LPC) and acyl-CoA; assay: Determination of substrate specificity for LPLAT, lysophosphatidylcholine as acyl-acceptor (LPCAT assay); assay type: biochemical, Saccharomyces cerevisea; settings: comparing FIG. 7 (10 mg/ml BSA) and FIG. 9 (0 mg/ml BSA)
Experimental: The specific activity of the enzymes LPLAT_18374 (Pi) and LPCAT_02075 (Pi) using the substrates indicated at the x-axis is gives as the amount (in nmol) of substrate/product consumed/produced in one minute per mg total protein and was determined as described in example 6. The specific activities measured for microsomal extracts of yeast harboring an empty vector (pYES2 ev) is shown as control.
The specific activity of the enzymes AtLPCAT1-At1g12640, AtLPCAT2-At1g63050, BnLPCAT1 and BnLPCAT2 using the substrates indicated at the x-axis is gives as the amount (in nmol) of substrate/product consumed/produced in one minute per mg total protein and was determined as described in example 6. The specific activities measured for microsomal extracts of yeast harboring an empty vector (pYES2 ev) is shown as control.

[2] = test system: yeast mutant lacking LPAAT activity (knockout of the gene YDL052c); assay: LPAAT activity assay using yeast extracts (complementation, formation of phosphatidic acid); settings: complements knockout strain; TLC, FIG. 1
Experimental: Microsomal isolations of these transformants and the wildtype yeast strain BY4742 (lane marked “+”) where incubated with ^14C-labeled oleic acid and lysophosphatidic acid (LPA). Thin layer chromatography was performed to separate lipid classes.
The next day, expression of the acyltransferase polypeptides can be induced by transferring the cells to fresh media containing 2% galactose, for example by inoculating 100 ml of fresh culture to an optical density (measure at 600 nm) of OD600=0.1. Cells are harvested after 24 h incubation at 28° C. by centrifugation at 3000×g for 5 min and resuspended in 1 ml resuspention buffer (25 mM Tris/HCL pH 7.6) and disrupted using acid washed zirconium bead (200 μm average diameter) in a mill (Resch, Germany) by three minutes agitation at 300 rpm. The supernatant is transferred to a fresh tube and centrifuged at 3000×g for 5 min. The obtained supernatant is the crude extract. Protein content is measured according to Bradford (Bradford, M. M. (1976), Anal. Biochem. Bd. 72, pp. 248-254) with bovine serum albumin as standard. Assay mixtures contain 50 μg of protein, 10 μl of 10 mM [^14C]-glycerole-3-phosphate (2000 dpm/nmol), 10 μl of 1 mM 18:1-CoA in assay buffer (25 mM Tris/HCL pH 7.6, 0.5 mg/ml BSA) to give a total volume of 100 μl. Samples are incubated for 10 min at 30° C. The assays are terminated by extraction of the lipids into chloroform according to Blight and Dyer (Bligh, E. G. and Dyer, W. J. (1959), Can. J. Biochem. Physiol. 37, pp. 911-917). Lipids are separated on thin layer chromatography (TLC) silica 60 plates (Merck) using chloroform/methanol/acetic acid/water (90:15:10:3), and autoradiographic pictures are taken using an instant imager (Packard).

[3] = test system: [14C]-18:1-LPA and acyl-CoA; assay: Determination of substrate specificity for LPAAT (yeast microsomal fraction); assay type: biochemical, Saccharomyces cerevisea; settings: comparing FIG. 5 (10 mg/ml BSA) and FIG. 6 (0 mg/ml BSA)
Experimental: The specific activity of the enzyme LPAAT_13842 (Pi) using the substrates indicated at the x-axis is gives as the amount (in nmol) of substrate/product consumed/produced in one minute per mg total protein and was determined as described in example 5. The specific activities measured for microsomal extracts of yeast harboring an empty vector (pYES2.1 ev) is shown as control.
The specific activity of the enzymes BnLPAAT2 and AtLPAAT2-At3g57650 using the substrates indicated at the x-axis is gives as the amount (in nmol) of substrate/product consumed/produced in one minute per mg total protein and was determined as described in example 5. The specific activities measured for microsomal extracts of yeast harboring an empty vector (pYES2 ev) is shown as control.

Row | Molecule | selectivity towards the length and the desaturation state of the substrate fatty acid [1] | LPAAT activity (formation of phosphatidic acid, PA) [2] | selectivity towards the length and the desaturation state of the substrate fatty acid [3]
1 | B1 | not as selective as AtLPAAT1 or AtLPCAT2 or BnLPCAT1 or BnLPCAT2 | having LPAAT activity; also recorded: have LPAAT activity | 
2 | B2 |  | having LPAAT activity; also recorded: have LPAAT activity | not as selective as AtLPAAT2 and BnLPAAT2
